Reference: PMC2722939

System: O=P(O)(O)O[C@@H]1O[C@H](CO)[C@@H](O)[C@H](O)[C@H]1O
Experiment: purified protein
Details: 5 μM βG1,6bisP, 2 mM MgCl2, 50 mM K+HEPES pH 7.0, 25 °C

Substance | Km [µM] | kcat [s⁻¹] | kcat/Km [M⁻¹ s⁻¹]
L. lactis β-PGM (wild type) (Lactococcus lactis subsp. lactis Il1403) | 31 ± 2 | 175 | 6e+06
L. lactis β-PGM (wild type) (Lactococcus lactis subsp. lactis Il1403; H20A) | 41 ± 3 | 0.026 | 600
L. lactis β-PGM (wild type) (Lactococcus lactis subsp. lactis Il1403; H20N) | 170 ± 10 | 0.62 | 4000
L. lactis β-PGM (wild type) (Lactococcus lactis subsp. lactis Il1403; H20Q) | 45 ± 1 | 21.9 | 500000
L. lactis β-PGM (wild type) (Lactococcus lactis subsp. lactis Il1403; K76A) | 66 ± 1 | 1.56 | 20000
L. lactis β-PGM (wild type) (Lactococcus lactis subsp. lactis Il1403; T16P) | 4.8 ± 0.3 | 0.026 | 5000
